According to patent US20250270306A1 (OSPEDALE SAN RAFFAELE S R L, published 2025):

Experiments:
Recombinant human IGFBP3 [1] = target: T1, Recombinant human IGFBP3 (human, UniProt P17936 28-291); assay: competitive ELISA: plate coated with rhIGFBP3 4 µg/ml; ecto-TMEM219 10 µg/ml added with the antibody (10 µg/ml per paragraph 174); detection anti-HisTag HRP; blocked ligand: ecto-TMEM219
T1 construct: also called rhIGFBP3; hIGFBP-3
Protocol: FIG. 5. IGFBP3-Ecto-TMEM219 binding in the presence of newly generated anti-IGFBP3 mAbs (n=11, YU139 antibodies) or Ecto-TMEM219 alone or monoclonal anti-IGFBP3 commercially available (LSBIO LS-C45037/clone 83.8F9, mAnti-IGFBP3) tested by using a competitive ELISA screening assay. In this assay, the microtiter plate was coated with rhlGFBP3, and labeled ecto-TMEM219 added. Each candidate monoclonal antibody was added and its ability to displace ecto-TMEM219 was assessed by measuring Absorbance after the plate was washed. Boxed are anti-IGFBP3 antibodies able to achieve the highest reduction in Ecto-TMEM219 signal (1-way ANOVA, p<0.00001).
Microplate was coated with 50 μl/well of 4 μg/ml rhlGFBP3 dissolved in PBS or PBS alone (no coating). Plate was incubated 90 minutes at 37° C. and washed with PBS (300 μl/well) and incubated with the blocking reagent (200 μl/well) 2 hours at room temperature. Samples were then diluted in the diluent solution (50 μl/well) and added to the plate as follows: diluent solution (none), ecto-TMEM 10 μg/ml, ecto-TMEM 10 μg/ml+anti-IGFBP3 mAbs 10 μg/ml, anti-IGFBP3 mAbs 10 μg/ml alone. After washing steps, plate was then incubated at room temperature for 1 hour with anti 6×His tag HRP diluted 1:2000 in Diluent solution (50 μl/well). ELISA plate was then read after adding visualization solution at ELISAreader and adsorbance was measured.

Recombinant human IGFBP3 [2] = target: T1, Recombinant human IGFBP3; assay: BLI (Octet/BLItz)
mouse IGFBP3 [3] = target: T2, mouse IGFBP3 (mouse, UniProt P47878 28-292, limits assumed); assay: BLI (Octet/BLItz)
T2 construct: Bought protein; also called mIGFBP-3; murine IGFBP3
T2 sequence (P47878 28-292 limits assumed): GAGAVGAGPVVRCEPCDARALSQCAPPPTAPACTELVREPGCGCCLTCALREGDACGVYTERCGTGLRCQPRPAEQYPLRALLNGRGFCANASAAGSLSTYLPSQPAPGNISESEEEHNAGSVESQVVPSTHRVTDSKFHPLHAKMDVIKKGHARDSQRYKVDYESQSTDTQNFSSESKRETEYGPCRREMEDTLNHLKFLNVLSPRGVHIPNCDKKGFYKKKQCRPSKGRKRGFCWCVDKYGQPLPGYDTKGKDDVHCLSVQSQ

Recombinant human IGFBP3 [4] = target: T1, Recombinant human IGFBP3; assay: ELISA: rhIGFBP3 2 µg/ml coated directly; scFv-Fc titrated 0.01-10 µg/ml; detection goat anti-human Fc-HRP, Abs 450 nm
Protocol: CVC microplates were coated with: i) 100 μl/well of 2 μg/ml rhIGFBP3 dissolved in PBS or PBS alone (no coating) and incubated 60 minutes at RT; ii) 100 μl/well of 2 μg/ml anti-IGFBP3 (LS-C45037 LSBio) and incubated o.n at 4° C. Plates were washed with H₂O-Tween20 (0.05%) and incubated with the blocking reagent (2% BSA-PBS-T (0.05%)). For condition ii) 100 μl/well of 2 μg/ml rhIGFBP3 was incubated o.n at 4° C. After washing the newly generated antibodies (in 2% BSA-PBS-T (0.05%)) were titrated onto the plate and incubated for 1 hour at RT. After washing steps, detection of bound antibodies was performed using a goat anti-human Fc-HRP antibody (Sigma A0170) in 2% BPS-PBS-T (0.05%) followed by washing and read out with TMB (100 μl/well). ELISA plates were then read measuring the absorbance at 450 nm.

Recombinant human IGFBP3 [5] = target: T1, Recombinant human IGFBP3; assay: cell-based or functional assay
Recombinant human IGFBP3 [6] = target: T1, Recombinant human IGFBP3; assay: BLI (Octet/BLItz), antibody captured via Fc on AHC biosensor, antigen in solution
Protocol: (§1) To assess the binding affinity in more detail, affinity measurements were performed using Biomolecular Interaction Analysis performed by an Octet instrument (BLItz System), which is a Biolayer Interferometry (BLI) platform. To establish the assay, the target monoclonal antibody (30 μg/ml in 1% BSA-PBST) was immobilized via Fc on the via AHC biosensor and the interaction with the antigen human IGFBP3 (R&D, cat n° 675 B3) and mouse IGFBP3 (Creative Biomart, cat n° igfbp3 829M) at different concentration was measured.

mouse IGFBP3 [7] = target: T2, mouse IGFBP3; assay: as above
Protocol: as §1

T1 sequence (P17936 28-291 limits assumed): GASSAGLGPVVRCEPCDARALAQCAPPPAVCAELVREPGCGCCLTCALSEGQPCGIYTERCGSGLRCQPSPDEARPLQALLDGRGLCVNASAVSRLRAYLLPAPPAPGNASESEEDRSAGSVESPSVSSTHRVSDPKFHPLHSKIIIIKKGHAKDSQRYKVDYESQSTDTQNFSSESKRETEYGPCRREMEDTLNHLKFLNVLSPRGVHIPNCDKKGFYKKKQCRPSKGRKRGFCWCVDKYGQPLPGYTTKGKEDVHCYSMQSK

binding result (Recombinant human IGFBP3 [1]) | expression of ISCs markers EphB2 and LGR5 (RT-PCR) in IGFBP3-treated mini-guts (Recombinant human IGFBP3 [5]) [%] | Kd (Recombinant human IGFBP3 [6]) [nM] | Binder | also measured
binds |  |  | YU139-D02 (Fc fusion) VH: EVQLVESGGGVVQPGRSLRLSCAASGFTFSSYGMHWVRQAPGKGLEWVAVISYDGSNKYYADSVKGRFTISRDNSKNTLYLQMNSLRAEDTAVYYCAKDNGDYGYYYYYYMDVWGKGTTVTVSS VL: DIQMTQSPSTLSASVGDRVTITCRASQSISRWLAWYQQKPGKAPKLLIYDASSLESGVPSRFSGSGSGTEFTLTISSLQPDDFATYYCQQSYSTPLTFGPGTKVDIK | 
 |  |  | ecto-TMEM219 (receptor, it is put last here only for want of better knowledge; also called EctoTMEM-His; extracellular domain of TMEM219; not shown: His tag (detected with anti 6xHis tag HRP)) THRTGLRSPDIPQDWVSFLRSFGQLTLCPRNGTVTGKWRGSHVVGLLTTLNFGDGPDRNKTRTFQATVLGSQMGLKGSSAGQLVLITARVTTERTAGTCLYFSAVPGILPSSQPPISCSEEGAGNATLSPRMGEECVSVWSHEGLVLTKLLTSEELALCGSR | Kd (Recombinant human IGFBP3 [2]): 35 nM; Kd (mouse IGFBP3 [3]): 60 nM
 |  |  | YU139-G01 (Fc fusion) VH: QMQLVQSGAEVKMPGASVKVSCKASGYTFTSYGISWVRQAPGQGLEWMGWISAYNGNTYYAQKLQGRVTMTADTSTSTAYMDLRSLRSDDTAVYYCARLSYYNYAMDVWGQGTTVTVSS VL: QSALTQPPSASGSPGQSVTISCTGTSSDVGGYNHVSWYQQHPGKAPKLMIYEVSNRPSGVPNRFSGSKSGNTASLTISGLQAEDEADYYCSSYTSSNTWVFGGGTKLTVL | binding result (Recombinant human IGFBP3 [4]): binds
binds |  |  | YU139-D03 (Fc fusion) VH: QVQLVQSGAEVKKPGASVKVSCKASGYTFSDYGISWVRQAPGQGLEWMGWISGDNVKTTYAKKFQGRVTLTTDTSTSTAYMELRSLTSDDTAAYYCARGGIVFDYWGQGTLVTVSS VL: ETTLTQSPGTLSLSPGERATLSCRASQSVSGNYLAWYQQKPGQPPRLLIFGASSRATGIPDRFSGSGSGTDFTLTISRLEPEDFGVYYCQQYGSSPGTFGQGTKVEIK | 
 |  |  | YU139-A02 (Fc fusion) VH: QVQLVQSGAEVKKPGSSVKVSCKASGGTFSSYAISWVRQAPGQGLEWMGGIIPIFGTANYAQKFQGRVTITADESTSTAYMELSSLRSEDTAVYYCARDYYDSSGYYFDAFDIWGQGTMVTVSS VL: QAGLTQPPSASGTPGQRVIISCSGSSSNIGTNTVSWYQHLPGTAPKLLIYNNNERPSGVPRRFSGSRSGASASLAISGLQSDDEAHYYCAAWDDNLTGLVFGGGTKLTVL | binding result (Recombinant human IGFBP3 [4]): binds
 | ≥ 50 | 328 | YU139-A03 (Fc fusion, The format used in the Octet assay is not restated (captured via Fc)) VH: QVQLVQSGGGVVQPGRSLRLSCAASGFTFSSYGIHWVRQAPGKGLEWVAIVSYDGRHKYYADSVKGRFTISRDDSKNTIYLQMDSLRAEDTAVYYCAKDSGNSGLEGIHDYWGQGTLVTVSS VL: DVVMTQSPSSVSASVGDRVTITCRASQGISSWLAWYQQKPGKAPKLLIYAASSLQSGVPSRFSGSGSGTDFTLTISSLQPEDFGTYYCQQANSFPLTFGGGTKVEIK | Kd (mouse IGFBP3 [7]): 735 nM
 | ≥ 50 | 1.69 | YU139-C01 (Fc fusion, The format used in the Octet assay is not restated (captured via Fc); also called Yu139-CO1) VH: QVQLVQSGAEVKKPGASVKVSCKASGYTFTSYGISWVRQAPGQGLEWMGWINTYNGNTNYAQKLQGRVTMTTDTSTTTAYMELRSLRSDDTAVYYCARDIGYSGSYYSPYYYYGMDVWGQGTTVTVSS VL: SSELTQDPAVSVALGQTVRITCQGDGLRNYFASWYQQKPGQAPVLVIYGKNNRPSGIPDRFSGSSSGNTASLRIAGAQAEDEADYYCNSRDGSGKHLVFGGGTKLTV | Kd (mouse IGFBP3 [7]): 342 nM
binds |  |  | YU139-B01 (Fc fusion) VH: QVQLQESGPGLVKPSGTLSLTCAVSGGSISSSNWWSWVRQPPGKGLEWIGEVYHSGSTNYNPSLKSRVTISVDKSKNQFSLKLSSVTAADTAVYYCARNIPLSSSWPNYYYYYGMDVWGQGTTVTVSS VL: SSELTQDPAVSVALGQTVRITCQGDSLRNYYASWYQQKPGQAPVLVIYGKNNRPSGIPDRFSGSSSGNTASLTINGAQAEDEADYYCNSRDSSAKHWVFGGGTKLTV | 
 | ≥ 50 | 4000 | YU139-H03 (Fc fusion, The format used in the Octet assay is not restated (captured via Fc)) VH: QVQLVQSGAEVKKPGASVKVSCKASGYTFTSYGISWVRQAPGQGLEWMGWISAYNGNTNYAQKLQGRVTMTTDTSTSTAYMELRSLRSDDTAVYYCARVKWELGWAFDIWGQGTMVTVSS VL: QAVLTQPPSVSGAPGQRVTISCTGSSSNIGAGYDVHWYQQLPGTAPKLLIYGNSNRPSGVPDRFSGSKSGTSAPLAITGLQAEDEADYYCQSYDSSLSTVFGGGTKLTVL | 
 | ≥ 50 |  | YU139-G03 (Fc fusion) VH: QVQLQQSGAEVKKPGSSVKVSCKASGGIFSTYVTSWVRQAPGQGLEWMGGIIPMFDTTEYAQKLEGRVTITVDESTNTAYMELSSLRFEDTAVYYCARAGGLSHFDYWGQGTLVTVSS VL: EIVLTQSPLSLPVTPGEPASISCRSSQSLLHSNGNNYLNWYLQKPGQSPQLLIYLSSRRASGVPDRFSGSGSGTDFTLKISRVEAEDVGVYYCMQGLQTPWTFGQGTKVETK | 
